Experimental data reported in patent US20200139362A1, “Proto-Antigen-Presenting Synthetic Surfaces, Activated T Cells, and Uses Thereof” (Berkeley Lights, Inc., priority 2018, published 2020).
Square brackets hold non-standard residues; d marks the D form. Ends that are not written are not given here.

Tests used:
HLA-A*02:01 [1] = biological target: T1, HLA-A*02:01 (Homo sapiens, UniProt P04439, D140Y/D185E/D98H/E176V/E277Q/G131W/G231S/I119V/I121R/I166T/I218V/L300P/L318F/N151K/N90K/P208A/P217A/Q86G/Q94H/R138H/R169H/T345S); test: Peptide switching (exchange) on peptide-HLA-A*02:01 complex, anti-DNP antibody flow cytometry; assay type: binding; conditions: 20 micromolar peptide, 1 micromolar HLA-A*02:01 with DNP-labelled initial peptide LMYAKRAFV, 1 mM Glycl-Methionine, room temperature 4 hours; relative to control peptide […] set as 100%
Description: To test binding of Immunogenic and Non-Immunogenic peptides to an MHC Class I complex, a peptide-HLA-A*02:01 complex with an initial peptide LMYAKRAFV (SEQ ID NO: 4) in the peptide binding groove was purchased. The initial peptide included a dinitrophenyl (DNP) moiety conjugated to the lysine at position 5. Two peptide antigens were then tested for their ability to bind to the MHC Class I complex: SLYSYFQKV (SEQ ID NO: 5) derived from SLC45A2 and SLLPIMwQLY (SEQ ID NO: 6) derived from TCL1. The peptides were resuspended in DMSO to 5 mg/mL. The peptides were then further diluted ten-fold in PBS. […]
Samples of unswitched peptide-MHC and switched peptide-MHC were then captured on Streptavidin-coated DynaBeads (ThermoFisher). […] The peptide-MHC beads were then stored at 4° C. until they were analyzed for peptide exchange.
To quantify peptide exchange, a FITC-conjugated anti-DNP antibody specific for the DNP-conjugated initial peptide was added to a sample of each captured peptide-MHC. […] The staining for pre-assembled peptide and intact pHLA complexes were detected by Flow Cytometry on a FACSCelesta with High-Throughput Sampler (BD Biosciences). […] Approximately 5,000 bead events were recorded for each sample. The Median Fluorescence Intensity (MFI) in the APC and FITC channels of each sample was then recorded. […]

HLA-A*02:01 [2] = biological target: T1, HLA-A*02:01; test: Peptide binding and stability of pMHC complexes under culture conditions (W6/32 antibody, flow cytometry); conditions: pMHC on Streptavidin DynaBeads in T Cell Culture Media at 37° C.; exponential decay fit of APC MFI
Description: To assess the stability of the pMHC Class I-peptide antigen complexes under the conditions that are used to culture T Cells, pMHC Class I complexes were first bound to beads. Biotinylated HLA-A*02:01 complexes loaded with either SLYSYFQKV (SEQ ID NO: 5) or SLLPIMwQLY (SEQ ID NO: 6) peptides were diluted to 0.83 micrograms/mL in Assay Buffer (PBS with 2 mM EDTA and 0.1% Bovine Serum Albumin). To 0.6 mL of the pMHC solutions in microcentrifuge tubes, 10^7 Streptavidin-coated DynaBeads (M-280, ThermoFisher) were added. The beads were mixed in the pMHC solution for 4 minutes at 2,000 rpm on a ThermoMixer (Eppendorf). The pMHC-beads were then captured on a magnetic rack, and the solution containing unbound pMHC removed by aspiration. 1 mL of Assay Buffer was added to the tubes, and then aspirated. The beads were then resuspended in 0.1 mL of Assay Buffer. The beads were then stored at 4° C. until use. […]
Antibody binding to the beads was then detected on a FACSCelesta with High-Throughput Sampler (BD Biosciences). […] Approximately 25,000 bead events were recorded for each sample. The Median Fluorescence Intensity (MFI) in the APC channel for the pHLA-beads in each sample was then recorded. […] The half-lives for the pHLA complexes were then calculated from the fitted decay constant.

In the case of “SLLPIMwQLY (SLLPIM[dW]QLY) [TCL1-derived peptide, non-immunogenic peptide antigen derived from TCL1]”, the percent peptide switching (HLA-A*02:01 [1]) is reported as “about 90%” and the “half-life of peptide-HLA-A*02:01 complex” value (HLA-A*02:01 [2]) is reported as “about 0.5 hours”.

For “SLYSYFQKV (SLC45A2-derived peptide) [immunogenic peptide antigen derived from SLC45A2]”, the percent peptide switching (HLA-A*02:01 [1]) was “about 99%” and the “half-life of peptide-HLA-A*02:01 complex” value (HLA-A*02:01 [2]) was “about 17 hours”.
